Measurements as given in patent publication US20210373021A1.

Biological target: SNAP-25 Reporter 1 (human) (UniProt P60880)
Test: cell-based or functional assay

UniProt P60880, sequence (P60880 other isoform, or with tags, fused parts or gaps limits assumed): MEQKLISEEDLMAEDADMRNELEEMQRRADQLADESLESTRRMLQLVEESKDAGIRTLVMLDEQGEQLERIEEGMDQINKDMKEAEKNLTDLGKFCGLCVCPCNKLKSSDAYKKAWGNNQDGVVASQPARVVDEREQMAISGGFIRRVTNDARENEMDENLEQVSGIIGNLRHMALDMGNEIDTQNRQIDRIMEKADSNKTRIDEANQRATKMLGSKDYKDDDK

For “Galderma BoNT/A drug product QM-1114 (from UniProt P0DPI0 2-1296) (enzyme)”, the EC50 of SNAP-25 cleavage (Western blot), 4 hours at ambient temperature was 844 U/ml, the EC50 of SNAP-25 cleavage (Western blot), 22 hours at 37° C. was 687 U/ml and the EC50 of SNAP-25 cleavage (Western blot), 22 hours at room temperature was 204 U/ml. It also gave an EC50 of uncleaved product in RLU (sandwich ELISA), 22 hours at 37° C. of 112 U/ml and an EC50 of uncleaved product in RLU (sandwich ELISA), 22 hours at room temperature of 55.3 U/ml.
